Measurements reported in patent publication US20200270125A1 (OMEROS, published 2020).
Values belong to the binder of their own block, whether it stands above or below them.

What was measured:
[1] = molecular target: T1, human MASP-3 (construct not stated) (human); experiment: cell-based or functional assay
T1 chain: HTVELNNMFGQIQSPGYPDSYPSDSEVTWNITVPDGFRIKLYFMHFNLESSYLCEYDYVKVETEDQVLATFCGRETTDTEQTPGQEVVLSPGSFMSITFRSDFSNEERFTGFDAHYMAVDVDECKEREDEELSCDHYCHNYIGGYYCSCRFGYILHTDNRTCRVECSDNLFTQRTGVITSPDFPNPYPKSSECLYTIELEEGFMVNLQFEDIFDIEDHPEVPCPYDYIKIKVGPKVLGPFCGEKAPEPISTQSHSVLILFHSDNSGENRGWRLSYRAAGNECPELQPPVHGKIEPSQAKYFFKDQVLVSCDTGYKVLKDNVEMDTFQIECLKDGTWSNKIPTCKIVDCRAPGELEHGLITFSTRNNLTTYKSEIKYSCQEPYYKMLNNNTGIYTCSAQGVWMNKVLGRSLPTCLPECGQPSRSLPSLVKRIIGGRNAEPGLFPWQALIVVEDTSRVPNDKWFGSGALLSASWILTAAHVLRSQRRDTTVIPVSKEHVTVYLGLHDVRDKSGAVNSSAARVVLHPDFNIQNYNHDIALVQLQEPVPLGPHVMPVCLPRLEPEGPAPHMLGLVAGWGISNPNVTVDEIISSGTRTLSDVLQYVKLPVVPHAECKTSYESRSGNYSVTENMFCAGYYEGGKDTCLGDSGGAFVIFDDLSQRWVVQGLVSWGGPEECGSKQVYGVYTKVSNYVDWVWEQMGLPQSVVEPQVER

[2] = molecular target: T2, human MASP-3 CCP1-CCP2-SP fragment (human); experiment: sandwich ELISA: human MASP-3 CCP1-CCP2-SP captured on aM3-259, mAb detected with anti-human kappa-HRP, A450
T2 construct: limits of the assay construct are not restated; also called rMASP-3 (CCP1-CCP2-SP)
T2 chain: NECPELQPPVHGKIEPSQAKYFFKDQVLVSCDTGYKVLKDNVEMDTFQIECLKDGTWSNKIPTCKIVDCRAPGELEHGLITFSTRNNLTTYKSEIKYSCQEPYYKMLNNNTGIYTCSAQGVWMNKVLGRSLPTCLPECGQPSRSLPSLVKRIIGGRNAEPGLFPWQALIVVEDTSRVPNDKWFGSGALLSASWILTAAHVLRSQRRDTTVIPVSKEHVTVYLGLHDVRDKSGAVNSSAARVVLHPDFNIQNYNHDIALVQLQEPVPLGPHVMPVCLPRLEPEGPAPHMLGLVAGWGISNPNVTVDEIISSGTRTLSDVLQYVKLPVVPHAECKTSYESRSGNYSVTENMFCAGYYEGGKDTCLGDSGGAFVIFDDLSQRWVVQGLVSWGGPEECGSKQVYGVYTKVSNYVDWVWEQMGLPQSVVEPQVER
Experimental: (§1) The plate was then washed (PBS-T, 0.05%) and the candidate MASP-3 antibodies were added followed by incubation for one hour at room temperature. The plate was washed (PBS-T, 0.05%) and a detection antibody was added (mouse anti-human kappa-HRP, SouthernBiotech #9230-05) for one hour at room temperature. After another wash (PBS-T, 0.05%) the plate was developed (5 minutes) with OPT EIA TMB (BD Biosciences #555214). Absorbance reading at A450 was measured using the Spectramax M5e plate reader.

[3] = molecular target: T3, recombinant human MASP-1A (S646A, CCP1-CCP2-SP fragment) (human, UniProt P48740 298-699, limits assumed); experiment: ELISA: recombinant MASP-1A (S646A, CCP1-CCP2-SP) coated directly on the plate, A450
T3 chain: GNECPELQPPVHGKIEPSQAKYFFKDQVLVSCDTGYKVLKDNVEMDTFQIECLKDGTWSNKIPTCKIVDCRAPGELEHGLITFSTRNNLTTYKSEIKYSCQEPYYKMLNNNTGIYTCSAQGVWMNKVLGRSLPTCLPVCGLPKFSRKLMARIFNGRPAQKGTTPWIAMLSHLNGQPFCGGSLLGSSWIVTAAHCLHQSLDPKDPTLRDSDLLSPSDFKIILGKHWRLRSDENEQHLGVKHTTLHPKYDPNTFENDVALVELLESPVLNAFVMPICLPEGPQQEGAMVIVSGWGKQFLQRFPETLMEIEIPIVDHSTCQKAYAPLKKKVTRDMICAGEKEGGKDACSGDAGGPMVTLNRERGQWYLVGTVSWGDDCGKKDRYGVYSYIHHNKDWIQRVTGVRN
Experimental: as §1

[4] = molecular target: T1, human MASP-3 (construct not stated); experiment: not described at this place
[5] = molecular target: T1, human MASP-3 (construct not stated); experiment: cell-based or functional assay
[6] = molecular target: T2, human MASP-3 CCP1-CCP2-SP fragment; experiment: sandwich ELISA, MASP-3 CCP1-CCP2-SP captured by αM3-259
Experimental: as §1

[7] = molecular target: T4, recombinant full-length mouse MASP-3 (mouse); experiment: sandwich ELISA, full-length mouse MASP-3 captured by αM3-259
T4 construct: Entry is with leader; also called mouse full length MASP-3
T4 chain: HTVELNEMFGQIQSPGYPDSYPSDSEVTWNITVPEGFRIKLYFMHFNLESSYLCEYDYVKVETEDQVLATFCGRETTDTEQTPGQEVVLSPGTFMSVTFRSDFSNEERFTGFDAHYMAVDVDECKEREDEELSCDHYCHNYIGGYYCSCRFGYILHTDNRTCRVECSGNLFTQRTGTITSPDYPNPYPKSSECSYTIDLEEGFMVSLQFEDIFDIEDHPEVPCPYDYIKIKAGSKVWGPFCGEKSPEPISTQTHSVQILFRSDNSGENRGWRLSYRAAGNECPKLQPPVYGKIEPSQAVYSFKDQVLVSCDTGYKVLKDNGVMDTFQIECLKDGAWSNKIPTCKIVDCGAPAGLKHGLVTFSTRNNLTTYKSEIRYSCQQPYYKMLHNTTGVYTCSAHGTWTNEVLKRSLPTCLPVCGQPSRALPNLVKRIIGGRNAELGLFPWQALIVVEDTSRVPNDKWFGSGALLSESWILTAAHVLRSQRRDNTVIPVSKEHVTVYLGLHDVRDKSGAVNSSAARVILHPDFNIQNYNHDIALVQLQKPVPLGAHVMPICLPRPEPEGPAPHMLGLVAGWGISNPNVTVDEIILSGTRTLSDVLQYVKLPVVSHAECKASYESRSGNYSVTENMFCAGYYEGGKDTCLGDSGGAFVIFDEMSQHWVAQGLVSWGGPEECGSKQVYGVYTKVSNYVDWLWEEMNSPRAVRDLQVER
Experimental: as §1

[8] = molecular target: T5, recombinant human MASP-2 (CCP1-CCP2-SP fragment) (human, UniProt O00187 298-686, limits assumed); experiment: ELISA: recombinant MASP-2 (CCP1-CCP2-SP) coated directly on the plate, A450
T5 construct: domain: CCP1-CCP2-SP fragment
T5 sequence (O00187 298-686 limits assumed): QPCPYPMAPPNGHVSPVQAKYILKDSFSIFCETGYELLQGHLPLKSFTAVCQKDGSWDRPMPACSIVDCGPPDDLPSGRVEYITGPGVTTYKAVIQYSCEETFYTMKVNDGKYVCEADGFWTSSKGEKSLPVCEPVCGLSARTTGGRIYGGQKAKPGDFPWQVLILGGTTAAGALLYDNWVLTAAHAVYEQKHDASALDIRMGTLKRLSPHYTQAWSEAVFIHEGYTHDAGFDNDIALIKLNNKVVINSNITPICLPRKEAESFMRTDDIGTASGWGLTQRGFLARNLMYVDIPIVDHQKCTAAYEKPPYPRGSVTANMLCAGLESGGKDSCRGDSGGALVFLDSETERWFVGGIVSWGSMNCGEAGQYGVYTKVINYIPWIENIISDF
Experimental: as §1

[9] = molecular target: T2, human MASP-3 CCP1-CCP2-SP fragment; experiment: cell-based or functional assay
[10] = molecular target: T1, human MASP-3 (construct not stated); experiment: cross-species binding experiments
[11] = molecular target: T1, human MASP-3 (construct not stated); experiment: ELISA, monovalent Fab
[12] = molecular target: T6, human MASP-1 (construct not stated) (human, UniProt P48740 20-699, limits assumed); experiment: DTLacO screen
T6 sequence: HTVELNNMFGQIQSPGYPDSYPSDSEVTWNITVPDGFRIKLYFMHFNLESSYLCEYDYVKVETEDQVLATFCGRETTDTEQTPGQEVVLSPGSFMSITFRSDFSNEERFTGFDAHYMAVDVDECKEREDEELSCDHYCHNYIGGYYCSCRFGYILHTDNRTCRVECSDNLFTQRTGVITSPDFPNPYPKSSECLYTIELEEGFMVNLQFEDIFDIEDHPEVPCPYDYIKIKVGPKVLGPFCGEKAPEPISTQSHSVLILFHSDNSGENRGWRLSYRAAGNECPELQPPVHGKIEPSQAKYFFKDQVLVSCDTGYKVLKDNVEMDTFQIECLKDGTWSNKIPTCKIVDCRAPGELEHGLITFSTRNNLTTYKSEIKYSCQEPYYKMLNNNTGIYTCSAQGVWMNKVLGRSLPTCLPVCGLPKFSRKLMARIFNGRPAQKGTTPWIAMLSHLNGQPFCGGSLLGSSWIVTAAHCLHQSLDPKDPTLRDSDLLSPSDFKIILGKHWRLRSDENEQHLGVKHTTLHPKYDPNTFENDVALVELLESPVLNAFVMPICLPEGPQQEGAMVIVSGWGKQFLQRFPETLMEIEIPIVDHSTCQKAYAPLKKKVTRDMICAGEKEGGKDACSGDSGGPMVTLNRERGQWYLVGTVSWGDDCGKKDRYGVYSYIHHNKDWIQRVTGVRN

B2: 4D5 Parental Fab (Fab, V domains shown)
VH: QVQLKQSGPELVKPGASVKLSCKASGYTFTTDDINWVKQRPGQGLEWIGWIYPRDDRTKYNDKFKDKATLTVDTSSNTAYMDLHSLTSEDSAVYFCSSLEDTYWGQGTLVAVSS
VL: DIVMTQSPSSLAVSAGEKVTMTCKSSQSLLNSRTRKNYLAWYQQKPGQSPKLLIYWASTRESGVPDRFTGSGSGTDFSLTISSVQAEDLAVYYCKQSYNLYTFGGGTKLEIKR
notes: Monovalent Fab; also called 4D5 Fab
- avidity [10]: < 500 pM
- EC50 [11]: 0.107 nM

B3: MASP-3 clone D14 (antibody, human IgG1, V domains shown)
VH: AVTLDESGGGLQTPGGALSLVCKASGFTFSSYAMHWVRQAPGKGLEWVAGIYKSGAGTNYAPAVKGRATISRDNGQSTVRLQLNNLRAEDTGTYYCAKTTGSGCSSGYRAEYIDAWGHGTEVIVSS
VL: ALTQPASVSANPGETVKITCSGGGSYAGSYYYGWYQQKAPGSAPVTLIYYNNKRPSDIPSRFSGSLSGSTNTLTITGVRADDEAVYFCGSADNSGAAFGAGTTLTVL
notes: Chicken V regions from the DTLacO platform; also called mAbD14; mAb D14
- binding result [12]: binds

B4: MASP-1 clone 1E10 (antibody, human IgG1, V domains shown)
VH: AVTLDESGGGLQTPGGALSLVCKASGFTFSSYDMVWVRQAPGKGLEFVAGISRNDGRYTEYGSAVKGRATISRDNGQSTVRLQLNNLRAEDTATYYCARDAGGSAYWFDAGQIDAWGHGTEVIVSS
VL: ALTQPASVSANPGETVKITCSGGGSYAGSYYYGWYQQKAPGSAPVTLIYYNNKRPSDIPSRFSGSLSGSTNTLTITGVRADDEAVYFCGSADNSGAAFGAGTTLTVL
notes: Chicken V regions from the DTLacO platform; also called mAb 1E10; mAb1E10
- binding result [12]: binds

Further lines, with some results ahead:

- Inhibition of Factor Bb Deposition on Zymosan (IC50 nM), 10% factor D-depleted human serum with pro-factor D [1]: 0.4 nM
- EC50 [2]: 0.113 nM
- binding affinity [4]: ≤ 500 pM
- Inhibition of Rabbit Erythrocyte Lysis (IC50 nM), 10% factor D-depleted human serum [5]: 0.1 nM
- EC50 [6]: 0.058 nM
- EC50 [7]: 0.098 nM
- inhibition of MASP-3-dependent fluorogenic tripeptide (BOC-V-P-R-AMC) cleavage [9]: 27.5 nM
B1: MASP-3 mAb 4D5 (mouse-human chimeric IgG4) (antibody, V domains shown)
VH: QVQLKQSGPELVKPGASVKLSCKASGYTFTTDDINWVKQRPGQGLEWIGWIYPRDDRTKYNDKFKDKATLTVDTSSNTAYMDLHSLTSEDSAVYFCSSLEDTYWGQGTLVAVSS
VL: DIVMTQSPSSLAVSAGEKVTMTCKSSQSLLNSRTRKNYLAWYQQKPGQSPKLLIYWASTRESGVPDRFTGSGSGTDFSLTISSVQAEDLAVYYCKQSYNLYTFGGGTKLEIKR
- binding result [3]: no binding (tested: about 20 nM (log10 about 1.3))
- binding result [8]: no binding (tested: about 20 nM (log10 about 1.3))

- Inhibition of Factor Bb Deposition on Zymosan (IC50 nM), 10% factor D-depleted human serum with pro-factor D [1]: 0.5 nM
- EC50 [2]: 0.023 nM
- binding affinity [4]: ≤ 500 pM
- EC50 [6]: 0.089 nM
- EC50 [7]: 0.081 nM
- inhibition of MASP-3-dependent fluorogenic tripeptide (BOC-V-P-R-AMC) cleavage [9]: 30.9 nM
B5: MASP-3 mAb 10D12 (mouse-human chimeric IgG4) (antibody, V domains shown)
VH: QIQLVQSGPELKKPGETVKISCKASGYIFTSYGMSWVRQAPGKGLKWMGWINTYSGVPTYADDFKGRFAFSLETSARTPYLQINNLKNEDTATYFCARGGEAMDYWGQGTSVTVSS
VL: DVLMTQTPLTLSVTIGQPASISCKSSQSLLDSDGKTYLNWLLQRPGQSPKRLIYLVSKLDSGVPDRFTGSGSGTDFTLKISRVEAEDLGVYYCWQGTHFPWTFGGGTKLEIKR
- binding result [3]: no binding (tested: about 20 nM (log10 about 1.3))
- binding result [8]: no binding (tested: about 20 nM (log10 about 1.3))

- avidity [10]: < 500 pM
- EC50 [11]: 0.108 nM
B6: 10D12 Parental Fab (Fab, V domains shown)
VH: QIQLVQSGPELKKPGETVKISCKASGYIFTSYGMSWVRQAPGKGLKWMGWINTYSGVPTYADDFKGRFAFSLETSARTPYLQINNLKNEDTATYFCARGGEAMDYWGQGTSVTVSS
VL: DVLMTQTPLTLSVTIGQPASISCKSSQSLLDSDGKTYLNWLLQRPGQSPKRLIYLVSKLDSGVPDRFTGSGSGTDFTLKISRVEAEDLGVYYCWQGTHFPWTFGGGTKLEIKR
notes: Monovalent Fab; also called 10D12 Fab
